Test results taken from the DeepSol protein solubility set.

assay: soluble on expression in E. coli; label from the status in PepcDB or PDB records

Sequence	soluble on expression in E. coli
MSTLLDRVPCTIVTGFLGAGKTTLLRGLLEKLDGKRLAIIVNEFGDIGIDGEILKGCGIESCPEENIVELANGCICCTVADDFQPAIEQILSRQPKVEHILIETSGLALPKPLVQAFQWPAIKSRVTVDAVVAVVDGAALAEGQVAHDMEALAAQRANDEALDHDDPVEEVFEDQVACADLIVLTKADLLDDAGLEKAKAHILEHLPKAAKIVVASNGAIDPTVLIGLGLAVEEDIENRRTHHDGELDHEHDDFDSFVIDLPAVTDPEALAARIAQTAAAENVLRIKGFIEVATKPMRLQVQAVGSRVNHYYDRPWAAGEERRSRLVVIGEKGINREKIEQMLAA	not soluble
MSTPFGLDLGNNNSVLAVARNRGIDIVVNEVSNRSTPSVVGFGPKNRYLGETGKNKQTSNIKNTVANLKRIIGLDYHHPDFEQESKHFTSKLVELDDKKTGAEVRFAGEKHVFSATQLAAMFIDKVKDTVKQDTKANITDVCIAVPPWYTEEQRYNIADAARIAGLNPVRIVNDVTAAGVSYGIFKTDLPEGEEKPRIVAFVDIGHSSYTCSIMAFKKGQLKVLGTACDKHFGGRDFDLAITEHFADEFKTKYKIDIRENPKAYNRILTAAEKLKKVLSANTNAPFSVESVMNDVDVSSQLSREELEELVKPLLERVTEPVTKALAQAKLSAEEVDFVEIIGGTTRIPTLKQSISEAFGKPLSTTLNQDEAIAKGAAFICAIHS	not soluble
MSTQLATSMEIIRKSLRKAAEDVLHINSKNAISNEVDSEEFKETLMKDAMKLMELETEGAQMQHIFEALHNDLKDGSDEVPNEKALEELYEKAKKTHKNVKGERQYFKDIIKSIRDESKNDENEMEVMQVQHSRKDPISKKDIVNPVISKNCGHVYDRDSIHEFAGKKRVIKCAMQGCSETINIGQLADYPDYWTNIKQQQ	not soluble
MSTQPSHPSSSNDLDSSIGTARIEVVSVPVKPRNKFSTTPVKRVEMKKSKESDSVDKALKVKSSLDCMKLEKPAPTTCEMKAA	soluble
MSTSVAENKALSASGDVNASDASVPPELLTRHPLQNRWALWYLKADRNKEWEDCLKMVSLFDTVEDFWSLYNHIQSAGGLNWGSDYYLFKEGIKPMWEDVNNVQGGRWLVVVDKQRRTQLLDHYWLELLMAIVGEQFDEYGDYICGAVVNVRQKGDKVSLWTRDATRDDVNLRIGQVLKQKLSIPDTEILRYEVHKDSSARTSSTVKPRICLPAKDPAPVKEKGPAATTSPSNPGTEATGTSPATPTP	not soluble
MSTTAYQPIAECGATTQSEAAAYQKRWLVANDAGQWLNRDLCPRLAEVSVELRMGYLVLKAPGMLRLDIPLDVIEDDDSVRYQMLVGEQTVDVVDEGELAAAWISNHAGVPCRILKVHPDMAEVRWPSLEHHHHHH	soluble
MSTTHNVPQGDLVLRTLAMPADTNANGDIFGGWLMSQMDIGGAILAKEIAHGRVVTVRVEGMTFLRPVAVGDVVCCYARCVQKGTTSVSINIEVWVKKVASEPIGQRYKATEALFKYVAVDPEGKPRALPVE	soluble
MSTTKAFKMTYTNAGNKKTEQVIQATEPLTILLMGVDTGGEGRGTSDSWNGNSDSQILMTLNPKTHTTTMVSIERDTMTNILDADGNIVSKQKMNAAYPLGYNSGSSSDGLKNAVSYAMKTISAQTGINIDSFVTVNFDGLVNMVDNVGGIDINNTTGQTLYISDTEPQYTAKVPPGKQHINGDQALVYTRDRHHLSNGDYGRAAHQREVIAALMKKILALDNITRYEQFLNEASKDFRTNIPINASTITSLLGYKDCFNKVVSIQYEGVGEMVDGASYQFMPTDIYLAMQNIMKKSLDESTVTTLPSSLITYESVFGSGTAPFYYLPSATVTEKGKSTVTYGVDTQGNLVSLNSKNSGNYVSTSGGSVQSDSSSGSSSSSSDSTATSSSDSTYQQDNTYNDGYNNSNDSTTSSYGTDDTNTGNYGYGTSQLEHHHHHH	soluble
MSVDLAHIRQVRAEADCLFNNDEVEAAIGRVAEAINRDLGETNPVVFCVMNGGLIFSGKLLPLLDFPLELSYLHATRYRNETSGGELFWKAKPEISFIDRDVLIIDDILDEGHTLSAIIDFCKHAGARAVHTAVLVDKEHERKARPDLKASFTGLYCADRYVFGYGMDYKGYWRNAAGIFAVKGL	not soluble
MSVEEVSKKFEENVSVDDTTATPKTVLSDSAHFDVKHPLNTKWTLWYTKPAVDKSESWSDLLRPVTSFQTVEEFWAIIQNIPEPHELPLKSDYHVFRNDVRPEWEDEANAKGGKWSFQLCGKGADIDELWLCTLLAVIGETIDEDDSQINGVVLSIRKGGNKFALWTKCEDKEPLLRIGGKFKQVLKLTDDGHLEFFPHCSANGRHPQPSITL	soluble
MSVIDANALDTAAFVARYRALFEHSPWVVERAARRRPFDDVFGGLMQVVYDASPDDQLALIRAHPELAGKAAIDRTLTAASAAEQASAGLDRLDEDEFHRFHALNHAYRQRFGFPFVICVRLQDKAGILAELQRRLDAPRNDEIATALAEIGKIVHLRLEALPLEHHHHHH	soluble
MSVIKLKSKLKYCHYAYDDEGYVIHMLTSNERTFFTNAYIIETKNSIVVVDTLMVNSDAILLRQYMDNINKPLIAVIITHGHPDHYNGTEIITGFKEVPIISTKGIRDCIQDTVDSKEVKWKPYFGQDWPEHKILPNQLVIDSEVVNLDGLDYSFRDLGAAESSSDLFFTLGEKRSVIFVGDVVFNNMHGFMNDGNSAQWLKVLQKLLTEIADVKLLFTGHGDPGDTHQLVQRQIDYISHYRSNLLAIIRGNQLEHHHHHH	not soluble
MSVINCEEVKRDEFHTEKYYESYNIFGAHIVTEDEMRGVRFTVWAPHAKAMSVVGDFNEWDYEQHKMLQVTEEGIWSLFIPHIEEREIYKYAIETMAGDVIFKADPYAVYAEVRPNTASVVFDIKGYEWNDKNWSRKKKKKSVYKEAMTVYELHFGSWKKKEDGTLYSYREMAEELIPYVVEHQFTHIEIMPLVEHPYDRSWGYQGTGYYAATSRFGTPHDLMHFVDECHKYGIGVILDWVPGHFCKDAHGLYLFDGTPTYEYKDKDVQENPVWGTVNFDLGKREVRNFLISNALFWMRYFHIDGFRVDAVANMLYWNKEGQEQSNEHAVSFLRELNEAVFAEDEDFLMTAEDSTAWPLVTAPTYEGGLGFNYKWNMGWMNDVLKYMECAPEYRKYIHDKMTFSLLYAYSENFILPLSHDEVVHGKKSLLNKMPGDYWDKFAQLRLLYGYFFTHPGKKLLFMGGEFGQFDEWKDLEDLDWNLHDFEMHRYMHDYFKELIALYKRSKPLWQLDHSREGFQWIDANNNEQSIFSFIRQGDKQEDALVVVCNFTKATYENYKVGVPDFEYYNEVLNSDAEQYGGSGQVNKKRLKTFQEPYHNQTAHVEITIPPFGVSILRPVKTRKGSKKQDGSKTKVRSNVTSRGKR	not soluble
MSVKLRLPQSAYPIFDRIEEMAWARHYQQIVREEKETELADDLEKGLPQHLFESLCIDHLQRHGANKQAISHAFDDDVEFQERMAEHIRYMAETIAHHQVDIDLEDLEHHHHHH	not soluble
MSVNALYDYKFEPKDKVENFHGMQLLYVYWPDHLLFCAPFALLVQPGMTFSALVDEILKPATAAHPDSAKADFLNAEWLLNDEPFTPKADASLKEQGIDHKSMLTVTTPGLKGMANAGY	soluble
MSVTEHKKQAPKEVRCKIVTISDTRTEETDKSGQLLHELLKEAGHKVTSYEIVKDDKESIQQAVLAGYHKEDVDVVLTNGGTGITKRDVTIEAVSALLDKEIVGFGELFRMISYLEDIGSSAMLSRAIGGTIGRKVVFSMPGSSGAVRLAMNKLILPELGHITFELHRQ	soluble
MSWEGFKKAINRAGHSVIIKNVDKTIDKEYDMEERRYKVLQRAGEALQKEAKGFLDSLRAVTASQTTIAEVISNLYDDSKYVAGGGYNVGNYYLQCVQDFDSETVKQLDGPLRETVLDPITKFSTYFKEIEEAIKKRDHKKQDFDAAKAKVRRLVDKPAKDASKLPRAEKELSLAKDIFENLNNQLKTELPQLVSLRVPYFDPSFEALIKIQLRFCTDGYTRLAQIQQYLDQQSRDDYANGLLDTKIEELLGQMTSLDICALGIK	not soluble
MSWIPFKIGQPKKQIVSKTVERDFEREYGKLQQLEEQTKRLQKDMKKSTDADLAMSKSAVKISLDLLSNPLCEQDQDFLRMVTALDTAMKRMDAFNQEKVNQIQKTVIEPLKKFGSIFPSLNMAVKRREQALQDYGRLQAKVEKYEEKEKTGPVLAKLHQAREELRPVREDFEAKNKQLLDEMPRFYNSRLDYFQPSFESLIRAQVIYYSEMHKIFGDLTQQLDQPGHSDEHRERENETKLSELRALSIVADD	not soluble
